According to paper PMC5780510, “Insights into the molecular mechanism of dehalogenation catalyzed by D-2-haloacid dehalogenase from crystal structures” (Scientific Reports, 2018):

Molecular target: the molecule itself
Assay: crystal structure; hanging-drop vapour diffusion, 0.1 M MES pH 6.43, 4% PEG20000, 10% PEG8000, potassium sodium tartrate, 277 K; four monomers in each asymmetric unit

B1: D-2-haloacid dehalogenase HadD AJ1 from Pseudomonas putida AJ1/23, wild type (enzyme)
chain: MNLPDNSIHLQLPRPVCEAIIRPVPEHRADQELSEIYRDLKATFGVPWVGVITQAVAYYRPFFAEAWRRFAPSAKTHFFERASDDIRIRSWELMGQSFVIEGQTDRLREMGYSVREIGQIRAVLDIFDYGNPKYLIFATAIKEGLLSGRTFGGAAGDARCHFPRSPICQIDPIPVMVEEHHAGGTLSQVYADIKQTLQLPFINSDYKAMARWPSYLEQAWGALKPCIDTPAYQAGRFDINARALAALDALPTAYRMSRDDALQAGLSEAQTDELIQVISLFQWMLSGLVLNVTHFKQQALK
notes: D-2-haloacid dehalogenase HadD AJ1, Pseudomonas putida strain AJ1/23; the 909 bp hadd aj1 gene (ENA AAA25831.1) subcloned into pET-28a between NcoI and XhoI; Homotetramer in the crystal; it gives no residue limits; also called WT; D-DEX
stoichiometry N: 4
